Experiment: yeast display, Sf9 membrane polyspecificity reagent, FACS + sequencing; frameworks hold sequencing errors
How it was run: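 Galactose-induced (36–48 hours) yeast carrying a synthetic nanobody display library were exposed to 10% biotinylated, detergent-solubilized Sf9 membrane reagent at 4 °C for 1 hour. FACS followed streptavidin microbead enrichment, using low and high (top ~1%) gates for expression (anti-HA) and reagent binding (streptavidin). Colony PCR, MiSeq 2 × 250 sequencing and CDR-length filtering followed. Labels for polyreactivity reflect the gate of origin.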

Sequence	polyreactivity (PSR sort gate)
QVQLEESGGGLVQAGGSLRLSCAASGSTFESYAMGWYRQAPGKERELVAAISWRVGSTYYADSVKGRFTISRDNAKNTFYLQMNILKPEDTAVYYCASKGWYSHYGGYDYWGQGTQVTVSS	low polyreactivity
QVQLVESGGGLVQAGGSLRLSCAASGFIFYYNGMGRYRQAPGKERELVAAISGGVGSTYYADSVKGRFTISRDNAKNTVYLQMNSLKPEDTAVYYCNAKLYKPPFDYWGQGTQVTLSS	low polyreactivity
QVQLVESGGGLVQAGGSLRLSCAPSRFIFFFYAMGWYRQAPGKERELVAAISDGVSTYYADSVKGRFTISRDNAKNTVYLQKNSLKPDDTAVYYCAVSRGDDPEFDYWGKGTQVTVSS	low polyreactivity
QVQLVESGGGLVQAGGSLRLSCAASGRIFGAYAMGWYRQAPGKERELVAAITFRGGSTYYADSVKGRFTISRDNAKNTVYLQMNSLKPEDTAVYYCAADILDYLHIYDYWGQGTQVTVSS	low polyreactivity
QVQLVESGGGLVQAGGSLRLSCAASGSTFSYYGMGWSRQAPGKERELVAAISWSGGSTYYADSVKGRFTISRDNAKNTVYLQMNSLKPEDTAVYYCARLDSAAEPRQYDYWGQGTQVTVSS	high polyreactivity
QVQLVQSGGGLVQAGGSLRLSCAASGSTNRYYAMGLYRQAPGKERELVAAITKSGGSTYYADSVKGRFTISRDNAKNTVYLQMNSLKPEDTAVVYCAAVRGWYSPALSEHDYWGQGTQVTVSS	low polyreactivity
QVQLVESGGGLVQAGGSLRLSCAASGSIFQINVMGWYRQAPGKERELVAASYADSVKGRFTISRDNAKNTVYVQMNSLKPEDTAVYYCARTNPAYSIYDYWGQGTQVTVSS	low polyreactivity
QVQLVESGGGLVQEGGSLRLICAASGRTVNTNALGLYRQAPGKEREFVAAISRSGGSTRYADSVKGRFTISRDNAKNTVYLQLNSLKPEDTAVYYCAAVRFRPRGNEYWGQGTQVTVSS	high polyreactivity
QVQLVESGGGLVQAGGSLRLSSAASGLTFAYYTMGWYRQAPGKERELVAAISRSGSGTYYADSVKGRFTISRDNAKNTVYLQMNSLKPEDTAVYYCATRYYLKFLDGYNYWGQGTQVTVSS	high polyreactivity
QVQLVESGGGLVQAGGSLRLSCAASGRILGFYAMGWYRQAPGKEMELVARINWSGTRTYYADSVKGRFTISRDNAKNTVYLQMNSLKPEDTAVYYCAAERYPYGVTYSKLDYWGQGTQVTVSS	high polyreactivity
QVQLVESGGGLVQAGGSLRLSCAASGSIFELYAMGWYRQAPGKERELVAAISSTGGRTYYADSVKGRFTISRDNAKNTVYLQMNSLKPEDTAVYYCNKVWPRVHPWNYDYWGQGTQVTVSS	high polyreactivity
QVQLVESGGGLVQAGGSLRLSCAASGRIFTDYAMAWYRQAPGKEREFVAAINKSGGSTYYADSVKGRFTISRDNAKNTVYLEMNSLKPEDTAVYYCAKSLGQTDWEYDSWGQGTQVTVSS	low polyreactivity
QVQLVESGGGLVQAGGSLRLSCAASGITIDVYGMGWYRQAPGKERELVASIRRRGGSTYYADSVKGRFTISRDNAKNTVYLQMNSLKPEDTAVYYCAAVPSDGHRIWSWDPYPEYDYWGQGTQVTVSS	low polyreactivity
QVQLVESGGGLLQAGGSLRLSCAASGFSFLCYAMGWYRQEPRKERELVASITYGGDSTYYADSVKGRFTISRDNAKNTVYLQMNSLKPEDTAGYYCNARPSYWWGGRLYGYWGQGTQVTVSS	high polyreactivity
QVQLVESGGGLVQAGGSLRLSCAASGSIFSRYAMGWYRQAPGKERELVAAINGRGSRTYYADSVKGRFTISRDNAKNTVYLQMNSLKPEDTAVYYCAAGRSRLYGPRYFIYKYNYWGQGTQVTVSS	high polyreactivity
QVQLVESGGGLVQAGGSLRLSCAASGRIFGRYAMGWYRQAPGKEREFVAAISWRGGTTYYADSVKGRFTISRDNAKNTVYLQMNSLKPEDTAVYYCNARYQTGGYGYWGQGTQVTVSS	high polyreactivity
QVQLVESGGGLVQAGGSLRLSCAASGFIFYKNAMGLYRQAPGKERELVAAISRRGSSTYYADSVKGRFTISRDNAKNTVYLQMNSLKPEDTAVYYCAARFTRRDYWGQGTQVTVSS	high polyreactivity
QVQLVESGGGLVQAGGSLRLSCAASGSIYGVKAMRWYRQAPGKERELVADITKSTGDTYADSVKGRFTISRDNAKNTVYLQMNSLKPEDTAGYYCNARVTVKQKRLYLYDFWGQGTQVTVSS	low polyreactivity
QVQLVESGGALFQAGGSLRLSCAASGRIFTIYASRWYRQAPGKATELVATISRRGGSTYYADSVKGRFTISRDNAKNNVYLQMNSLKPEVSAVYYCAADSVITWWAYDYWGQGTQVTVSS	high polyreactivity
QVQLEESGGGLVQAGGSLRLTCAASGRTIVYNAMGWYRQAPGKERELVAAIDGGTGSTYYADSVKGRFTISRDNAKNTVYLEMNCLKPEDTAVYYCAVETYGGGYPVTYDYWGQGTQVTVSS	low polyreactivity
QVQLVESGGGLVQAGGSLRLSCAASGSTFAGYAMGWYRQAPGKERELVATITYSGGSTYYADSVKGRFTISRDNAKNTVYLQKNSLKPEDTAVYYCAKKASYWWGYEYWGQGTQVTVSS	low polyreactivity
QVQLVESGGGLVQAGGSLRLSCAASGGTFPQYAMGWYRQAPGKEREFVADITSRGGTTYYADSVKGRFTISRDNAKNTVYLQMNSLKPEDTAVYYCAAVNVAYSWYDTGYDYWGQGTQVTVSS	low polyreactivity

Sequence	polyreactivity (PSR sort gate)
QVQLVESGGGLFQAGGSLRLSCAASGRIYPTYTMGWYRQAPGKERQLVAAINRGGGSTYYADSVKGRFTISRDYAKNTVYLQMICLKPEDTAVYYCNARTYYRSYGYDYWGQGTQVTVSS	low polyreactivity
QVQLVESGGGLVQAGGSLRLSCAASGITFDNYAMGWYIQAPGKERELVAAITSGDGTYYADSVKWRFTISRDNAKITVYLQMNSLKPEDTAVYACAVQGSRTENYDWYYYGGQGTQVTVSS	low polyreactivity
QVQLVESGGGLVQAGGSLRLSCAASGRTVYVYYMGWYRQAPGKERELVAAISTNYADSVKGRCTISRDNAKNTVYFQMNSLIPEDTAVYYCAADDIHYVIHAYYSTGVDYWGQGTQVTVSS	low polyreactivity
QVQLVESGGGLVQAGGSLRLSCAASGFIFFSYAMGWYRQAPGKEREFVASISGRTGSTYYADSVKGRFTISRDNAKNTVYLQMNSLKPEDTAVYYCNARIVHSFRYDYWGQGTQVNVSS	low polyreactivity
QVQLVESGGGLVKAGGSLRLSCAASGNIFYINTMGWYRQAPGKERELVAAIDASYGSTYYADSVKGRFTISRDNAKNTVYLQMNSLKPEDTAVYYCATSRGYDSVYYFYTLWYYYWVQGTQVTVSS	low polyreactivity
QVQLVESGGGLVQAGGSLRLSCAASGRIFRWYAMGWYRQAPGKERELVATISSSGRTNYADSVKGRFTISRDNAKNTVYLQMNSLKPEETAVYYCNADGGDWFGYVGMDYWGQGTQVTVSS	high polyreactivity
QVQLVESGGGLVQAGGSLRLTCAASGFTFYWYTMGWYRQAPGKERELVATISGSGGRTYYADSVKGRFTISRDNAKNTVYLQMNSLKPEDTAVYYCNAGRPYKYGYWGQGTQVTVSS	high polyreactivity
QVQLVESGGGLVQAGGSLRLSCAASGIIFDHYAMGWYRKAPGKERELVAAITSGGRTYYADSVKGRFTISRDNAKKTVYLQMNSLKPEDTAVYYCNARFRSSARLAYYYWGQGTQVTVSS	high polyreactivity
QVQLVESGGGLVQAGGSLRIICAASGTTFVYNDMGWYRQAPGKEGELVAGITTSGGSTYYADSVKGRFTISRDNAKNTVYLQRNSLKPEDTAVYYWAAPAFSAWLEMDYWGQGTQVTVSS	low polyreactivity
QVQLVESRGGLVQAGGSLRLSCAASGRTFAVYALGWYRQAPGKEWELVAAITLGASRTYYADSVKGRFTISRDNAKNTVYLQMNSLKPEDTAVYSCNAVGRRNVDSSLNDYWGQGTQVTVSS	low polyreactivity
QVQLVESGGGLVQAGGSLRLSSAASGFIFATYAMGWYRQAPGTERELVAAISQSGGGTYYADSVKGRFTISRDNAKNTVYLQMNSLKPEDTAVYYCAVDVSEWYHYDLYYWYYYWGQGTQVTVSS	high polyreactivity
QVQLVESGGGLVQAGGSLRLSCAASGSIFGWYVMGWYRQAPGKERELVAAISSVGSTYYADSVKGRFTISRDNAKNTVYLQMNSLKPEDTAVYYCAADRVWGTPQAYVPSQFDYWGQGTQVTVSS	low polyreactivity
QVQLVESGGGLVQAGRSLRLSCAASRSIFARYAMAWYRQAPGKERELVAAINSTVSTNYADSVKGRFTISRENAKNTVYLQMNSLKPEDTAVSYCAVDMVRGGLDSWGQGTQVTVSS	low polyreactivity
QVQLVESGGGLVQAGGSLRLSCAASGRTFRTYTMGWYRQAPGKEREFGAAITSSGASTYYADSVKGRFTISRDNAKNTVYLPMNSLKPEETAVYYCAARYGRRLVWVPALLYDYWGQGTQVTVSS	high polyreactivity
QVQLVESGGGLVQAGGILRLSCAASGILVYNAMGWYIQAPGTERVLVAAISARGGRTYYADSVKGRFTISRDNAKNTVNLQMNSLKPEDTPVYYCATLETTGVNYWGQGTQVTVSS	high polyreactivity
QVQLVESGGGLVQAGGSLRLSCAASGRTFYTYAMGWYRQAPGKERELVAAITRRGGSTFYADSVKGRFTISRDNAKNTVYLQMNSLKPEDTAVYYCAARSTVGPQYGVRFNYWGQGTQVTVSS	high polyreactivity
QVQLVESGGGLVQAGGSLRLSCAASGSIFDYNTMGWYRQAPGKEREFVAAISSSGGGTSYADSVKGRFTISRDNAKNTVYLQMNSLKPEDTAVYYCAALIKLTPYQRQYWKYRAYYYWGQGSQVTVSS	high polyreactivity
QVQLVESGGGLVQAGGSLRLSCAASGLIFTTNAMGSYRQAPGKEREFVAAISPSGGSTYYADSVKGRFTISRDNAKNTVYLQMNRLKPEDTAVYYCAARYSPVWHKYYYWGQGTQVTVSS	high polyreactivity
QVQLVESGGGLVQAGGSLRLSCAASGSIFWQNGMGWYRQAPGKEREFVAAITRTGGSTYYADSVKGRFTISRDNAKNTVYLQMNSLKPEDTAVYYCAARGGYRYTRYDYWGQGTQVTVSS	high polyreactivity
QVQLVESGGGLVQAGGSLRLSCAASGSIFQSYAMGWYRQAPGKERELVAAITERGGSTYYADSVKGRFTISRDTAKNTVYLQMNSLKPEDTAVYYCAADIYYWWCLSDLYTPTEGDYWGQGTQVTVSS	low polyreactivity
QVQLVESGGGLVQAGGSLRLSCAASGLTFVENAMGWYRQAPGKERELVASISNGGSTYYADSVKGRFTISRDNAKNTVYLQMNSLKQEDTAVYYCAAGYWAGYGSTAPYDYWGQGTQVTVSS	low polyreactivity

Reference: the nanobody polyreactivity screen of Harvey et al. (2022)
